Source: patent US20200270335A1

Biological target: LRP6 of Super TopFlash (STF, HEK293) cells (UniProt O75581)
Experiment: cell-based or functional assay

Sequence of LRP6 of Super TopFlash (STF, HEK293) cells (O75581 20-1613 limits assumed): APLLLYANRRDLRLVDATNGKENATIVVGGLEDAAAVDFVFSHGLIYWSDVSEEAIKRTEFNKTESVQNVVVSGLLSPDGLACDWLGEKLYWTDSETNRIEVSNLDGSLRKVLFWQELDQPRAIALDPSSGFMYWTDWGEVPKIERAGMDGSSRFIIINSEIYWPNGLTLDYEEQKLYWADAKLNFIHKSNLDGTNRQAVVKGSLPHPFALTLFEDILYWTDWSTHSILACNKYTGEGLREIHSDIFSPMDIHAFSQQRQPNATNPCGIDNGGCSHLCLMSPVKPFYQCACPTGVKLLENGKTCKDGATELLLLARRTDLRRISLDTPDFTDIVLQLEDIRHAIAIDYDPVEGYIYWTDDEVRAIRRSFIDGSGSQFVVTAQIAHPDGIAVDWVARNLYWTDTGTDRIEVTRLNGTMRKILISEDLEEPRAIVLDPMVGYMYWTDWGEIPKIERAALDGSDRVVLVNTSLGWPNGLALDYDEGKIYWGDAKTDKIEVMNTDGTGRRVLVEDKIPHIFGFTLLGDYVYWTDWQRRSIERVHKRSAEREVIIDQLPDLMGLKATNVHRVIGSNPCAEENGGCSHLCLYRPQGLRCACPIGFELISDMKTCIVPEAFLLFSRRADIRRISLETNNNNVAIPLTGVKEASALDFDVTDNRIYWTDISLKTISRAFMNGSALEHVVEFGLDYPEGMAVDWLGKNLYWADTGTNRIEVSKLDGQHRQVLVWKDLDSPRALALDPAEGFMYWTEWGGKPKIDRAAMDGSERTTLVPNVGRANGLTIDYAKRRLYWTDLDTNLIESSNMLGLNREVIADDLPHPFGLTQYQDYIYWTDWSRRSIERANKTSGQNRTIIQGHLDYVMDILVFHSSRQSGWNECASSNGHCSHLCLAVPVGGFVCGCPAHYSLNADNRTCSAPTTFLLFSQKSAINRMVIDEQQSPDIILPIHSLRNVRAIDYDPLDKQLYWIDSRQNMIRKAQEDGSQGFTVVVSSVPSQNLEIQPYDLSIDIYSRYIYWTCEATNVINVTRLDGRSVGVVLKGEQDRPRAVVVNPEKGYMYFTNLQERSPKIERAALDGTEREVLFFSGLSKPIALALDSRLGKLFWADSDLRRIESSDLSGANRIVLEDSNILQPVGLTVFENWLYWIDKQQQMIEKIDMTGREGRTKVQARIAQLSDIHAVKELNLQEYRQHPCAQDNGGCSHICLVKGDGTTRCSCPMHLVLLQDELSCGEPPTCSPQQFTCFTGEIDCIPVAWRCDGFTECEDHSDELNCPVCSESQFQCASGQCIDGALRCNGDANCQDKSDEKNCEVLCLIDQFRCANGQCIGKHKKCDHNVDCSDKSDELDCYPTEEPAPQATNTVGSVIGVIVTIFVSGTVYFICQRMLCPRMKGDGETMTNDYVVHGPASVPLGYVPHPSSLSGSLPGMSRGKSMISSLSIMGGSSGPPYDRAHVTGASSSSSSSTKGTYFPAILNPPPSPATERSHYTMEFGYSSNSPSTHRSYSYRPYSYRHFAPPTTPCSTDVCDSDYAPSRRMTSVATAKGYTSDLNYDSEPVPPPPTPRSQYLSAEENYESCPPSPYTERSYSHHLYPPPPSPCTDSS

## ACE 448 HSA-DKK2 full length (C1+C2) (from UniProt P02768 25-609; Q9UBU2 34-259) (ligand)
  activity in the Super Top Flash assay against the HSA-DKK2 C2 proteins: 10 fold
